Target: the molecule itself
Experiment: SEC; Superdex 200 16/60 column, after Ni-NTA purification of the secreted protein

B1: extracellular domain of human DPP6-L (residues 117–865) (domain or fragment)
chain: not shown
modifications: glycosylated
- stoichiometry N: 2

From article PMC2576564 (Frontiers in Molecular Neuroscience, 2008)
